According to the Human Domainome abundance scans (Beltran et al. 2025):
± gives the uncertainty stated by the source.

B1: Intersectin-1, residues 1156 to 1213; numbered along this chain, Q15811 (parent)
chain: AVCQVIGMYDYTAQNDDELAFNKGQIINVLNKEDPDWWKGEVNGQVGLFPSNYVKLTT

Variants of: B1
Assay: abundance fitness (aPCA) (normalised: wild type 0, dead -1); higher = more abundant; growth selection in yeast, the domain comes from the species named
Details: Homo sapiens

Compared with AVCQVIGMYDYTAQNDDEAAFNKGQIINVLNKEDPDWWKGEVNGQVGLFPSNYVKLTT [L19A], AVCQVIGMYDYTAQNDDEEAFNKGQIINVLNKEDPDWWKGEVNGQVGLFPSNYVKLTT [L19E] is higher in abundance fitness: -0.9 ± 0.15 for the first, -0.523 ± 0.16 for the second.

AVCQVIGMYDYTAQNDDETAFNKGQIINVLNKEDPDWWKGEVNGQVGLFPSNYVKLTT [L19T] and AVCQVIGMYDYTAQNDDEFAFNKGQIINVLNKEDPDWWKGEVNGQVGLFPSNYVKLTT [L19F] are within error of each other in abundance fitness: -0.648 ± 0.17 for the first, -0.733 ± 0.24 for the second.

AVCQVIGMYDYTAQNDDENAFNKGQIINVLNKEDPDWWKGEVNGQVGLFPSNYVKLTT [L19N] and AVCQVIGMYDYTAQNDDEQAFNKGQIINVLNKEDPDWWKGEVNGQVGLFPSNYVKLTT [L19Q] are within error of each other in abundance fitness: -0.7 ± 0.18 for the first, -0.869 ± 0.21 for the second.

AVCQVIGMYDYTAQNDDEYAFNKGQIINVLNKEDPDWWKGEVNGQVGLFPSNYVKLTT [L19Y] and AVCQVIGMYDYTAQNDDEDAFNKGQIINVLNKEDPDWWKGEVNGQVGLFPSNYVKLTT [L19D] are within error of each other in abundance fitness: -1.04 ± 0.28 for the first, -0.776 ± 0.21 for the second.

Going from AVCQVIGMYDYTAQNDDEPAFNKGQIINVLNKEDPDWWKGEVNGQVGLFPSNYVKLTT [L19P] to AVCQVIGMYDYTAQNDDEVAFNKGQIINVLNKEDPDWWKGEVNGQVGLFPSNYVKLTT [L19V], the abundance fitness rises from -0.806 ± 0.19 to -0.281 ± 0.098.

AVCQVIGMYDYTAQNDDEKAFNKGQIINVLNKEDPDWWKGEVNGQVGLFPSNYVKLTT [L19K] and AVCQVIGMYDYTAQNDDEWAFNKGQIINVLNKEDPDWWKGEVNGQVGLFPSNYVKLTT [L19W] are within error of each other in abundance fitness: -0.908 ± 0.33 for the first, -0.838 ± 0.15 for the second.

AVCQVIGMYDYTAQNDDERAFNKGQIINVLNKEDPDWWKGEVNGQVGLFPSNYVKLTT [L19R] and AVCQVIGMYDYTAQNDDEHAFNKGQIINVLNKEDPDWWKGEVNGQVGLFPSNYVKLTT [L19H] are within error of each other in abundance fitness: -0.764 ± 0.097 for the first, -0.858 ± 0.26 for the second.

AVCQVIGMYDYTAQNDDECAFNKGQIINVLNKEDPDWWKGEVNGQVGLFPSNYVKLTT [L19C] and AVCQVIGMYDYTAQNDDEIAFNKGQIINVLNKEDPDWWKGEVNGQVGLFPSNYVKLTT [L19I] are within error of each other in abundance fitness: -0.599 ± 0.14 for the first, -0.357 ± 0.2 for the second.

AVCQVIGMYDYTAQNDDEGAFNKGQIINVLNKEDPDWWKGEVNGQVGLFPSNYVKLTT [L19G] and AVCQVIGMYDYTAQNDDESAFNKGQIINVLNKEDPDWWKGEVNGQVGLFPSNYVKLTT [L19S] are within error of each other in abundance fitness: -0.726 ± 0.099 for the first, -0.848 ± 0.14 for the second.

AVCQVIGMYDYTAQNDDELAFGKGQIINVLNKEDPDWWKGEVNGQVGLFPSNYVKLTT [N22G] and AVCQVIGMYDYTAQNDDELAFAKGQIINVLNKEDPDWWKGEVNGQVGLFPSNYVKLTT [N22A] are within error of each other in abundance fitness: -0.006 ± 0.074 for the first, 0.157 ± 0.099 for the second.

AVCQVIGMYDYTAQNDDELAFEKGQIINVLNKEDPDWWKGEVNGQVGLFPSNYVKLTT [N22E] and AVCQVIGMYDYTAQNDDELAFCKGQIINVLNKEDPDWWKGEVNGQVGLFPSNYVKLTT [N22C] are within error of each other in abundance fitness: 0.174 ± 0.14 for the first, 0.128 ± 0.1 for the second.

Going from AVCQVIGMYDYTAQNDDELAFDKGQIINVLNKEDPDWWKGEVNGQVGLFPSNYVKLTT [N22D] to AVCQVIGMYDYTAQNDDELAFFKGQIINVLNKEDPDWWKGEVNGQVGLFPSNYVKLTT [N22F], the abundance fitness falls from 0.164 ± 0.15 to -0.432 ± 0.13.

AVCQVIGMYDYTAQNDYELAFNKGQIINVLNKEDPDWWKGEVNGQVGLFPSNYVKLTT [D17Y] and AVCQVIGMYDYTAQNDTELAFNKGQIINVLNKEDPDWWKGEVNGQVGLFPSNYVKLTT [D17T] are within error of each other in abundance fitness: -0.359 ± 0.24 for the first, -0.119 ± 0.12 for the second.

AVCQVIGMYDYTAQNDRELAFNKGQIINVLNKEDPDWWKGEVNGQVGLFPSNYVKLTT [D17R] and AVCQVIGMYDYTAQNDKELAFNKGQIINVLNKEDPDWWKGEVNGQVGLFPSNYVKLTT [D17K] are within error of each other in abundance fitness: 0.014 ± 0.08 for the first, -0.099 ± 0.16 for the second.

AVCQVIGMYDYTAQNDIELAFNKGQIINVLNKEDPDWWKGEVNGQVGLFPSNYVKLTT [D17I] and AVCQVIGMYDYTAQNDQELAFNKGQIINVLNKEDPDWWKGEVNGQVGLFPSNYVKLTT [D17Q] are within error of each other in abundance fitness: -0.419 ± 0.23 for the first, -0.082 ± 0.14 for the second.

AVCQVIGMYDYTAQNDLELAFNKGQIINVLNKEDPDWWKGEVNGQVGLFPSNYVKLTT [D17L] and AVCQVIGMYDYTAQNDMELAFNKGQIINVLNKEDPDWWKGEVNGQVGLFPSNYVKLTT [D17M] are within error of each other in abundance fitness: -0.125 ± 0.099 for the first, -0.048 ± 0.15 for the second.

First: AVCQVIGMYDYTAQNDNELAFNKGQIINVLNKEDPDWWKGEVNGQVGLFPSNYVKLTT [D17N]
Second: AVCQVIGMYDYTAQNDVELAFNKGQIINVLNKEDPDWWKGEVNGQVGLFPSNYVKLTT [D17V]
The abundance fitness of the first is higher: 0.147 ± 0.2 for the first, -0.473 ± 0.09 for the second.

First: AVCQVIGMYDYTAQNDSELAFNKGQIINVLNKEDPDWWKGEVNGQVGLFPSNYVKLTT [D17S]
Second: AVCQVIGMYDYTAQNDPELAFNKGQIINVLNKEDPDWWKGEVNGQVGLFPSNYVKLTT [D17P]
The abundance fitness of the first is higher: 0.126 ± 0.091 for the first, -0.592 ± 0.19 for the second.

Going from AVCQVIGMYDYTAQNDDELFFNKGQIINVLNKEDPDWWKGEVNGQVGLFPSNYVKLTT [A20F] to AVCQVIGMYDYTAQNDDELSFNKGQIINVLNKEDPDWWKGEVNGQVGLFPSNYVKLTT [A20S], the abundance fitness rises from -0.673 ± 0.28 to -0.079 ± 0.088.

AVCQVIGMYDYTAQNDDELNFNKGQIINVLNKEDPDWWKGEVNGQVGLFPSNYVKLTT [A20N] and AVCQVIGMYDYTAQNDDELEFNKGQIINVLNKEDPDWWKGEVNGQVGLFPSNYVKLTT [A20E] are within error of each other in abundance fitness: -0.484 ± 0.3 for the first, -0.149 ± 0.13 for the second.

AVCQVIGMYDYTAQNDDELPFNKGQIINVLNKEDPDWWKGEVNGQVGLFPSNYVKLTT [A20P] and AVCQVIGMYDYTAQNDDELDFNKGQIINVLNKEDPDWWKGEVNGQVGLFPSNYVKLTT [A20D] are within error of each other in abundance fitness: -0.123 ± 0.12 for the first, -0.286 ± 0.2 for the second.

AVCQVIGMYDYTAQNDDELWFNKGQIINVLNKEDPDWWKGEVNGQVGLFPSNYVKLTT [A20W] and AVCQVIGMYDYTAQNDDELKFNKGQIINVLNKEDPDWWKGEVNGQVGLFPSNYVKLTT [A20K] are within error of each other in abundance fitness: -0.415 ± 0.1 for the first, -0.236 ± 0.15 for the second.

AVCQVIGMYDYTAQNDDELRFNKGQIINVLNKEDPDWWKGEVNGQVGLFPSNYVKLTT [A20R] showed an abundance fitness of -0.292 ± 0.078.
